Our source for the IC50 values is patent US20140087995A1 (published 2014).

To fix the notation:
T1: human calcitonin receptor (human, UniProt P30988 25-474)
T1 construct: whole, on cells; also called hCTR; hCT
T1 sequence (looked up): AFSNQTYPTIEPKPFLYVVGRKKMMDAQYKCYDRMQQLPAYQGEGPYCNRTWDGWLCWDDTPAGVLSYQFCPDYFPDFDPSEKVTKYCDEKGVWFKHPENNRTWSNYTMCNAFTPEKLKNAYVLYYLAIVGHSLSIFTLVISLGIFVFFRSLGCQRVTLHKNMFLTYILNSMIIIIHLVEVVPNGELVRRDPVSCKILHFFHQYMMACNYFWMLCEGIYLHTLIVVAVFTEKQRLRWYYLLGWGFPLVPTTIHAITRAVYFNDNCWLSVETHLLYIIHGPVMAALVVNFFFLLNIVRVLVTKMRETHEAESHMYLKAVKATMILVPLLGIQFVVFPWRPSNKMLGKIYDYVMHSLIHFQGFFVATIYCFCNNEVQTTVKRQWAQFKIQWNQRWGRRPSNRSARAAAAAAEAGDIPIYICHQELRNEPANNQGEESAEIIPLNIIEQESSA

B1: N^ε1-[(4S)-4-carboxy-4-(19-carboxynonadecanoylamino)butanoyl]-[His14,Arg17,Pro21,Pro27,Pro31]-h-amylin (peptide)
peptide: K([γGlu-C20 diacid])CNTATCATQRLAHFLRHSSPNFGAIPSSTPVGSNTY-NH2
modifications: disulfide 2-7; N-terminus assumed
SMILES: CC[C@H](C)[C@H](NC(=O)[C@H](C)NC(=O)CNC(=O)[C@H](Cc1ccccc1)NC(=O)[C@H](CC(N)=O)NC(=O)[C@@H]1CCCN1C(=O)[C@H](CO)NC(=O)[C@H](CO)NC(=O)[C@H](Cc1c[nH]cn1)NC(=O)[C@H](CCCNC(=N)N)NC(=O)[C@H](CC(C)C)NC(=O)[C@H](Cc1ccccc1)NC(=O)[C@H](Cc1c[nH]cn1)NC(=O)[C@H](C)NC(=O)[C@H](CC(C)C)NC(=O)[C@H](CCCNC(=N)N)NC(=O)[C@H](CCC(N)=O)NC(=O)[C@@H](NC(=O)[C@H](C)NC(=O)[C@@H]1CSSC[C@H](NC(=O)[C@@H](N)CCCCNC(=O)CC[C@H](NC(=O)CCCCCCCCCCCCCCCCCCC(=O)O)C(=O)O)C(=O)N[C@@H](CC(N)=O)C(=O)N[C@@H]([C@@H](C)O)C(=O)N[C@@H](C)C(=O)N[C@@H]([C@@H](C)O)C(=O)N1)[C@@H](C)O)C(=O)N1CCC[C@H]1C(=O)N[C@@H](CO)C(=O)N[C@@H](CO)C(=O)N[C@H](C(=O)N1CCC[C@H]1C(=O)N[C@H](C(=O)NCC(=O)N[C@@H](CO)C(=O)N[C@@H](CC(N)=O)C(=O)N[C@H](C(=O)N[C@@H](Cc1ccc(O)cc1)C(N)=O)[C@@H](C)O)C(C)C)[C@@H](C)O
notes: also called compound 62
B2: N^ε1N^ε1-[(4S)-4-carboxy-4-(19-carboxynonadecanoylamino)butanoyl]-[His14,Arg17,Pro21,Pro27,Pro34]-h-amylin (peptide)
peptide: K([γGlu-C20 diacid])CNTATCATQRLAHFLRHSSPNFGAIPSSTNVGPNTY-NH2
modifications: disulfide 2-7; N-terminus assumed
SMILES: CC[C@H](C)[C@H](NC(=O)[C@H](C)NC(=O)CNC(=O)[C@H](Cc1ccccc1)NC(=O)[C@H](CC(N)=O)NC(=O)[C@@H]1CCCN1C(=O)[C@H](CO)NC(=O)[C@H](CO)NC(=O)[C@H](Cc1c[nH]cn1)NC(=O)[C@H](CCCNC(=N)N)NC(=O)[C@H](CC(C)C)NC(=O)[C@H](Cc1ccccc1)NC(=O)[C@H](Cc1c[nH]cn1)NC(=O)[C@H](C)NC(=O)[C@H](CC(C)C)NC(=O)[C@H](CCCNC(=N)N)NC(=O)[C@H](CCC(N)=O)NC(=O)[C@@H](NC(=O)[C@H](C)NC(=O)[C@@H]1CSSC[C@H](NC(=O)[C@@H](N)CCCCNC(=O)CC[C@H](NC(=O)CCCCCCCCCCCCCCCCCCC(=O)O)C(=O)O)C(=O)N[C@@H](CC(N)=O)C(=O)N[C@@H]([C@@H](C)O)C(=O)N[C@@H](C)C(=O)N[C@@H]([C@@H](C)O)C(=O)N1)[C@@H](C)O)C(=O)N1CCC[C@H]1C(=O)N[C@@H](CO)C(=O)N[C@@H](CO)C(=O)N[C@H](C(=O)N[C@@H](CC(N)=O)C(=O)N[C@H](C(=O)NCC(=O)N1CCC[C@H]1C(=O)N[C@@H](CC(N)=O)C(=O)N[C@H](C(=O)N[C@@H](Cc1ccc(O)cc1)C(N)=O)[C@@H](C)O)C(C)C)[C@@H](C)O
notes: also called compound 67
B3: N^ε1-[(4S)-4-carboxy-4-(19-carboxynonadecanoylamino)butanoyl]-[His14,Arg17,Pro21,Pro27]-h-amylin (peptide)
peptide: K([γGlu-C20 diacid])CNTATCATQRLAHFLRHSSPNFGAIPSSTNVGSNTY-NH2
modifications: disulfide 2-7; N-terminus assumed
SMILES: CC[C@H](C)[C@H](NC(=O)[C@H](C)NC(=O)CNC(=O)[C@H](Cc1ccccc1)NC(=O)[C@H](CC(N)=O)NC(=O)[C@@H]1CCCN1C(=O)[C@H](CO)NC(=O)[C@H](CO)NC(=O)[C@H](Cc1c[nH]cn1)NC(=O)[C@H](CCCNC(=N)N)NC(=O)[C@H](CC(C)C)NC(=O)[C@H](Cc1ccccc1)NC(=O)[C@H](Cc1c[nH]cn1)NC(=O)[C@H](C)NC(=O)[C@H](CC(C)C)NC(=O)[C@H](CCCNC(=N)N)NC(=O)[C@H](CCC(N)=O)NC(=O)[C@@H](NC(=O)[C@H](C)NC(=O)[C@@H]1CSSC[C@H](NC(=O)[C@@H](N)CCCCNC(=O)CC[C@H](NC(=O)CCCCCCCCCCCCCCCCCCC(=O)O)C(=O)O)C(=O)N[C@@H](CC(N)=O)C(=O)N[C@@H]([C@@H](C)O)C(=O)N[C@@H](C)C(=O)N[C@@H]([C@@H](C)O)C(=O)N1)[C@@H](C)O)C(=O)N1CCC[C@H]1C(=O)N[C@@H](CO)C(=O)N[C@@H](CO)C(=O)N[C@H](C(=O)N[C@@H](CC(N)=O)C(=O)N[C@H](C(=O)NCC(=O)N[C@@H](CO)C(=O)N[C@@H](CC(N)=O)C(=O)N[C@H](C(=O)N[C@@H](Cc1ccc(O)cc1)C(N)=O)[C@@H](C)O)C(C)C)[C@@H](C)O
notes: also called compound 70
B4: N^ε1-[(4S)-4-carboxy-4-[[(4S)-4-carboxy-4-(19-carboxynonadecanoylamino)butanoyl]amino]butanoyl]-[Asp14,Arg17,Pro21,Pro26,Asp35]-h-amylin (peptide)
peptide: K([γGlu-γGlu-C20 diacid])CNTATCATQRLADFLRHSSPNFGAPLSSTNVGSDTY-NH2
modifications: disulfide 2-7; N-terminus assumed
SMILES: CC(C)C[C@H](NC(=O)[C@H](CCCNC(=N)N)NC(=O)[C@H](CCC(N)=O)NC(=O)[C@@H](NC(=O)[C@H](C)NC(=O)[C@@H]1CSSC[C@H](NC(=O)[C@@H](N)CCCCNC(=O)CC[C@H](NC(=O)CC[C@H](NC(=O)CCCCCCCCCCCCCCCCCCC(=O)O)C(=O)O)C(=O)O)C(=O)N[C@@H](CC(N)=O)C(=O)N[C@@H]([C@@H](C)O)C(=O)N[C@@H](C)C(=O)N[C@@H]([C@@H](C)O)C(=O)N1)[C@@H](C)O)C(=O)N[C@@H](C)C(=O)N[C@@H](CC(=O)O)C(=O)N[C@@H](Cc1ccccc1)C(=O)N[C@@H](CC(C)C)C(=O)N[C@@H](CCCNC(=N)N)C(=O)N[C@@H](Cc1c[nH]cn1)C(=O)N[C@@H](CO)C(=O)N[C@@H](CO)C(=O)N1CCC[C@H]1C(=O)N[C@@H](CC(N)=O)C(=O)N[C@@H](Cc1ccccc1)C(=O)NCC(=O)N[C@@H](C)C(=O)N1CCC[C@H]1C(=O)N[C@@H](CC(C)C)C(=O)N[C@@H](CO)C(=O)N[C@@H](CO)C(=O)N[C@H](C(=O)N[C@@H](CC(N)=O)C(=O)N[C@H](C(=O)NCC(=O)N[C@@H](CO)C(=O)N[C@@H](CC(=O)O)C(=O)N[C@H](C(=O)N[C@@H](Cc1ccc(O)cc1)C(N)=O)[C@@H](C)O)C(C)C)[C@@H](C)O
notes: also called compound 1
B5: N^ε1-[(4S)-4-carboxy-4-[[(4S)-4-carboxy-4-(19-carboxynonadecanoylamino)butanoyl]amino]butanoyl]-[Asp14,Arg17,Pro21,Pro27,Arg35]-h-amylin (peptide)
peptide: K([γGlu-γGlu-C20 diacid])CNTATCATQRLADFLRHSSPNFGAIPSSTNVGSRTY-NH2
modifications: disulfide 2-7; N-terminus assumed
SMILES: CC[C@H](C)[C@H](NC(=O)[C@H](C)NC(=O)CNC(=O)[C@H](Cc1ccccc1)NC(=O)[C@H](CC(N)=O)NC(=O)[C@@H]1CCCN1C(=O)[C@H](CO)NC(=O)[C@H](CO)NC(=O)[C@H](Cc1c[nH]cn1)NC(=O)[C@H](CCCNC(=N)N)NC(=O)[C@H](CC(C)C)NC(=O)[C@H](Cc1ccccc1)NC(=O)[C@H](CC(=O)O)NC(=O)[C@H](C)NC(=O)[C@H](CC(C)C)NC(=O)[C@H](CCCNC(=N)N)NC(=O)[C@H](CCC(N)=O)NC(=O)[C@@H](NC(=O)[C@H](C)NC(=O)[C@@H]1CSSC[C@H](NC(=O)[C@@H](N)CCCCNC(=O)CC[C@H](NC(=O)CC[C@H](NC(=O)CCCCCCCCCCCCCCCCCCC(=O)O)C(=O)O)C(=O)O)C(=O)N[C@@H](CC(N)=O)C(=O)N[C@@H]([C@@H](C)O)C(=O)N[C@@H](C)C(=O)N[C@@H]([C@@H](C)O)C(=O)N1)[C@@H](C)O)C(=O)N1CCC[C@H]1C(=O)N[C@@H](CO)C(=O)N[C@@H](CO)C(=O)N[C@H](C(=O)N[C@@H](CC(N)=O)C(=O)N[C@H](C(=O)NCC(=O)N[C@@H](CO)C(=O)N[C@@H](CCCNC(=N)N)C(=O)N[C@H](C(=O)N[C@@H](Cc1ccc(O)cc1)C(N)=O)[C@@H](C)O)C(C)C)[C@@H](C)O
notes: also called compound 52
B6: N^ε1-[(4S)-4-carboxy-4-[[(4S)-4-carboxy-4-(19-carboxynonadecanoylamino)butanoyl]amino]butanoyl]-[Asp14,Arg17,Pro21,Pro27,Asp35]-h-amylin (peptide)
peptide: K([γGlu-γGlu-C20 diacid])CNTATCATQRLADFLRHSSPNFGAIPSSTNVGSDTY-NH2
modifications: disulfide 2-7; N-terminus assumed
SMILES: CC[C@H](C)[C@H](NC(=O)[C@H](C)NC(=O)CNC(=O)[C@H](Cc1ccccc1)NC(=O)[C@H](CC(N)=O)NC(=O)[C@@H]1CCCN1C(=O)[C@H](CO)NC(=O)[C@H](CO)NC(=O)[C@H](Cc1c[nH]cn1)NC(=O)[C@H](CCCNC(=N)N)NC(=O)[C@H](CC(C)C)NC(=O)[C@H](Cc1ccccc1)NC(=O)[C@H](CC(=O)O)NC(=O)[C@H](C)NC(=O)[C@H](CC(C)C)NC(=O)[C@H](CCCNC(=N)N)NC(=O)[C@H](CCC(N)=O)NC(=O)[C@@H](NC(=O)[C@H](C)NC(=O)[C@@H]1CSSC[C@H](NC(=O)[C@@H](N)CCCCNC(=O)CC[C@H](NC(=O)CC[C@H](NC(=O)CCCCCCCCCCCCCCCCCCC(=O)O)C(=O)O)C(=O)O)C(=O)N[C@@H](CC(N)=O)C(=O)N[C@@H]([C@@H](C)O)C(=O)N[C@@H](C)C(=O)N[C@@H]([C@@H](C)O)C(=O)N1)[C@@H](C)O)C(=O)N1CCC[C@H]1C(=O)N[C@@H](CO)C(=O)N[C@@H](CO)C(=O)N[C@H](C(=O)N[C@@H](CC(N)=O)C(=O)N[C@H](C(=O)NCC(=O)N[C@@H](CO)C(=O)N[C@@H](CC(=O)O)C(=O)N[C@H](C(=O)N[C@@H](Cc1ccc(O)cc1)C(N)=O)[C@@H](C)O)C(C)C)[C@@H](C)O
notes: also called compound 2

Numbered stars: 1 amine (or outer) side, 2 acyl side, 3 side chain; on linkers, the order of the positions; unused ones are H or OH. Bridge positions count the residues as written; N and C are the ends. Side chains are listed from the residue outwards. Ends that are not written are not given here. * marks the point of attachment. C20 diacid = O=C(O)CCCCCCCCCCCCCCCCCCC(=O)*; γGlu = O=C(O)[C@H](CCC(=O)[*:2])N[*:1]

This assay addresses T1, human calcitonin receptor. Briefly: SPA competition with 125I-calcitonin, membranes of BHK hCTR cells (Assay VII). Put shortly:
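BHK hCTR membranes 35 ng/μL + SPA beads 0.05 mg/well; buffer 50 mM Hepes pH 7.4, 1 mM CaCl2, 5 mM MgCl₂, 0.1% OA, 0.02% Tween20. 120 min, 25° C., shaking. Scintillation count; IC50 by one-site binding competition.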
As usually defined, the IC50 is the concentration needed to halve the response being measured. Take B1: the IC50 amounted to 6.17 nM. With B2 the figure was 4.63 nM. For B3, the IC50 was 10.3 nM.

In the case of B4, the IC50 worked out at 32.5 nM.

Regarding B5, the IC50 came out at 56.9 nM. With B6 the figure was 19.5 nM.
